According to paper PMC9610207 (Viruses, 2022):
No end group written: not given here.

T1: MPP5 PDZ (amino acids 238–336) (human, UniProt Q8N3R9 238-336)
T1 sequence (looked up): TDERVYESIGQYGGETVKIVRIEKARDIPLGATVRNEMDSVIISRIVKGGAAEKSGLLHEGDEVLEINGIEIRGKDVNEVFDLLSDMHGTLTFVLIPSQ


Tests used:
[1] = molecular target: SNX27 PDZ (amino acids 740–141) (human, UniProt Q96L92 43-136); test: fluorescence polarisation; conditions: both partners purified
[2] = molecular target: T1, MPP5 PDZ (amino acids 238–336); test: fluorescence polarisation; conditions: both partners purified

Row | Binder | Kd [1] | Kd [2]
1 | NSSRVPDLLV (also: FITC-labeled, also called peptide from the E protein) [FITC-labeled peptide of the C-terminus of the SARS-CoV-2 E protein (E66-77)] | > 400 µM | 400 ± 55 µM
2 | EPTTTTSVPL (also: FITC-labeled) [FITC-labeled peptide of the C-terminus of SARS-CoV-2 ORF3a (ORF3A 266-275)] | > 400 µM | 
